Data on one molecule can be found in article PMC11218785, “Methyltransferase TaSAMT1 mediates wheat freezing tolerance by integrating brassinosteroid and salicylic acid signaling”.

The target in this data set is T1, MBP-TaBZR1 (Triticum aestivum, UniProt A0A3B6AUH8 1-313).
T1 sequence: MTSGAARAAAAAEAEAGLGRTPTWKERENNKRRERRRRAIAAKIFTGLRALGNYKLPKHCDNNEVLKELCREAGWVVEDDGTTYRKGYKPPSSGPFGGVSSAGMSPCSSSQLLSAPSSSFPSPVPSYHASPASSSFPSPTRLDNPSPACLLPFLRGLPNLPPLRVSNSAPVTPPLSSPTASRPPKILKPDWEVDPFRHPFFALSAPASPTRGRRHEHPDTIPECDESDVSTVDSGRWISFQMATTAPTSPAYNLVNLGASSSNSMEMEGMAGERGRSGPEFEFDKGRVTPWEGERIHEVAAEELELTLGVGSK
Briefly: EMSA; 1 nM probe; 1x LightShift binding buffer, 50 ng poly(dI-dC), 2.5% glycerol, 0.05% NP-40, 50 mM KCl, 5 mM MgCl2, 2 mM EDTA pH 8.0, 1 nM biotin probe, 25 C 20 min, 6% PAGE. The note with it: protein: recombinant; tags: N-terminal MBP (pCold-MBP); chain copies: 2; label: biotin (forward strand primer marked bio); blunt. In general terms: In EMSA bound probe runs differently from free probe, usually more slowly.

B1: TaSAMT1-B promoter E-box probe (dsDNA)
DNA 1: CACGCGCATACGTGCTCATATGGCAATGAG
DNA 2: CTCATTGCCATATGAGCACGTATGCGCGTG
In the case of B1, the binding result is on record as “binds”.
